Assay results as given in article doi:10.1101/840439 (bioRxiv, 2019).

Molecular target: the molecule itself
Assay: crystal structure

B1: BchL (L-protein of dark-operative protochlorophyllide oxidoreductase, DPOR), wild type (enzyme, Rhodobacter sphaeroides, UniProt Q9RFD6 1-297, looked up)
chain: MSPKDLTIPTGADGEGSVQVHLDEADKITGAKVFAVYGKGGIGKSTTSSNLSAAFSILGKRVLQIGCDPKHDSTFTLTGSLVPTVIDVLKDVDFHPEELRPEDFVFEGFNGVMCVEAGGPPAGTGCGGYVVGQTVKLLKQHHLLDDTDVVIFDVLGDVVCGGFAAPLQHADQAVVVTANDFDSIYAMNRIIAAVQAKSKNYKVRLAGCVANRSRATDEVDRFCKETNFRRLAHMPDLDAIRRSRLKKKTLFEMDEDQDVLAARAEYIRLAESLWRGLDPIDPHSLPDRDIFELLGFD
stoichiometry N: 2
